Results: patent CN116744966A

Target: SARS-CoV-2 spike protein (wild type) on pseudovirus (SARS-CoV-2) (UniProt P0DTC2)
Test: cell-based or functional assay

For “ACE2-Ig (positive control of the pseudovirus neutralisation assay) (Fc fusion)”, the IC50, pseudovirus neutralisation (positive control) was 0.9 mg/L.
